Residue numbers refer to the chain shown, from its start. Numbers in names are those of the source.
T1: LTK_(TG–EGFL) (human LTK residues 63–420) (human, UniProt P29376 63-420)
T1 sequence (looked up): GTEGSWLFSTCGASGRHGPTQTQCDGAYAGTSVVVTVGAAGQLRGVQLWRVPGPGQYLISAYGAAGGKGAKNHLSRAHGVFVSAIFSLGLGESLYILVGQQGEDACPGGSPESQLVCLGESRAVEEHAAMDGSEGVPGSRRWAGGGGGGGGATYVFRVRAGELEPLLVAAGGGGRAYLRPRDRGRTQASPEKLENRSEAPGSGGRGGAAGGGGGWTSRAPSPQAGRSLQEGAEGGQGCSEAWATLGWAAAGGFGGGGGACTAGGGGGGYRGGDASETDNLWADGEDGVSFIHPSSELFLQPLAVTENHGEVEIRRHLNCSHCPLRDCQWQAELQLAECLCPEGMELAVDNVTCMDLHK

B1: ALKTG (human ALK residues 648–985) (domain or fragment, UniProt Q9UM73 648-985, looked up)
chain: TAPKSRNLFERNPNKELKPGENSPRQTPIFDPTVHWLFTTCGASGPHGPTQAQCNNAYQNSNLSVEVGSEGPLKGIQIWKVPATDTYSISGYGAAGGKGGKNTMMRSHGVSVLGIFNLEKDDMLYILVGQQGEDACPSTNQLIQKVCIGENNVIEEEIRVNRSVHEWAGGGGGGGGATYVFKMKDGVPVPLIIAAGGGGRAYGAKTDTFHPERLENNSSVLGLNGNSGAAGGGGGWNDNTSLLWAGKSLQEGATGGHSCPQAMKKWGWETRGGFGGGGGGCSSGGGGGGYIGGNAASNNDPEMDGEDGVSFISPLGILYTPALKVMEGHGEVNIKHYL
B2: ALKAL2 (residues 78–152, conserved C-terminal domain) (ligand, human, UniProt Q6UX46 78-152, looked up)
chain: PSPEQRVEIVPRDLRMKDKFLKHLTGPLYFSPKCSKHFHRLYHNTRDCTIPAYYKRCARLLTRLAVSPVCMEDKQ
B3: purified ALKAL2^F97E (used in Ba/F3 and SEC-MALLS assays) (ligand, human, UniProt Q6UX46 78-152, looked up)
chain: B2 chain with F20E
B4: ALKAL1 (residues 57–129, conserved C-terminal domain) (ligand, human, UniProt Q6UXT8 57-129, looked up)
chain: PSGSRSAEIFPRDSNLKDKFIKHFTGPVTFSPECSKHFHRLYYNTRECSTPAYYKRCARLLTRLAVSPLCSQT
B5: purified ALKAL1^F76E (used in Ba/F3 and SEC-MALLS assays) (ligand, human, UniProt Q6UXT8 57-129, looked up)
chain: B4 chain with F20E
B6: ALK_(TG–EGFL) (human ALK residues 648–1038) (domain or fragment, UniProt Q9UM73 648-1038, looked up)
chain: TAPKSRNLFERNPNKELKPGENSPRQTPIFDPTVHWLFTTCGASGPHGPTQAQCNNAYQNSNLSVEVGSEGPLKGIQIWKVPATDTYSISGYGAAGGKGGKNTMMRSHGVSVLGIFNLEKDDMLYILVGQQGEDACPSTNQLIQKVCIGENNVIEEEIRVNRSVHEWAGGGGGGGGATYVFKMKDGVPVPLIIAAGGGGRAYGAKTDTFHPERLENNSSVLGLNGNSGAAGGGGGWNDNTSLLWAGKSLQEGATGGHSCPQAMKKWGWETRGGFGGGGGGCSSGGGGGGYIGGNAASNNDPEMDGEDGVSFISPLGILYTPALKVMEGHGEVNIKHYLNCSHCEVDECHMDPESHKVICFCDHGTVLAEDGVSCIVSPTPEPHLPLSLILS

Columns and labels:
[1] = target: B2; assay: ITC
[2] = target: B4; assay: ITC
[3] = target: B6; assay: ITC
[4] = target: full-length ALK ectodomain (ALKFL, residues 19–1038) (human, UniProt Q9UM73 19-1038); assay: ITC
[5] = target: T1, LTK_(TG–EGFL) (human LTK residues …); assay: ITC
[6] = target: B6; assay: SEC-MALS
[7] = target: T1, LTK_(TG–EGFL) (human LTK residues …); assay: SEC-MALS
[8] = target: B4; assay: SEC-MALS

| Kd [3] [nM] | Kd [5] [nM] | stoichiometry N [6] [receptor per cytokine] | stoichiometry N [7] | Binder | also measured |
| --- | --- | --- | --- | --- | --- |
| – | – | – | – | B1 | fold reduction of affinity on removal of EGFL (against ALK_(TG–EGFL)) [1]: 30 fold; fold reduction of affinity on removal of EGFL (against ALK_(TG–EGFL)) [2]: 4 fold |
| 40 | 55 | 1 | 2 receptors per cytokine | B2 | stoichiometry N [4]: 1 receptor per cytokine |
| – | – | 1 | – | B3 | – |
| 600 | 10 | – | 2 receptors per cytokine | B4 | – |
| – | – | – | 1 receptor per cytokine | B5 | – |
| – | – | – | – | B6 | stoichiometry N [8]: 1 receptor per cytokine |
